Substitutions are numbered along the chain they refer to. Read-outs that look alike come from different tables or passages of the source. Blank lines part the entries; values can stand above or below the binder they belong to.
Legend:
GFRα1 = biological target: T1, GFRα1 (UniProt P56159 25-429, limits assumed); assay: SPR, GFRα1 on chip surface (FIGS. 13A and 13B)
T1 construct: also called GNFR alpha 1; receptor GFRα1
T1 sequence (looked up): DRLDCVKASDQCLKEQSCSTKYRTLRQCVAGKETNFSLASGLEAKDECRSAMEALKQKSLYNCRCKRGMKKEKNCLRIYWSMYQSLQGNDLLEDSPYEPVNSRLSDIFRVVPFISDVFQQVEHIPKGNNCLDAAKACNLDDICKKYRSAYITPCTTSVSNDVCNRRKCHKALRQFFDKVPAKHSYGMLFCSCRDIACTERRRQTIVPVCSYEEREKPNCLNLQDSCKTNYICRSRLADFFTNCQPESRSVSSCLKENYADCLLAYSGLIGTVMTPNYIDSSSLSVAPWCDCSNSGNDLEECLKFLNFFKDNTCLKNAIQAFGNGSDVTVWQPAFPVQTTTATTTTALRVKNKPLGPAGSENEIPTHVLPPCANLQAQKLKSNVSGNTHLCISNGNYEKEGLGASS

[1] = biological target: T2, human GFRAL (analyte in Biacore assays) (human, UniProt Q6UXV0 19-351, limits assumed); assay: Biacore SPR, antibody captured, human GFRAL injected
T2 construct: injected in solution over captured antibody; also called hGFRAL
T2 sequence: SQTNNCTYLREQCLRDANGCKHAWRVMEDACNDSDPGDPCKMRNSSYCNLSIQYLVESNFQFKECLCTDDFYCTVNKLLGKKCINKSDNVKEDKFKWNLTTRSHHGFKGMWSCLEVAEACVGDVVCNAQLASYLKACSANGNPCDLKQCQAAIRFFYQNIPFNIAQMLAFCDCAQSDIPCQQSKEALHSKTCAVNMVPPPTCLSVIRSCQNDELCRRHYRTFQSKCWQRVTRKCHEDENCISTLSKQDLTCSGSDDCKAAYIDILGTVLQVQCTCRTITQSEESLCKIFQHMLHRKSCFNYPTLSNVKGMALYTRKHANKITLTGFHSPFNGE
Procedure: Exemplary humanized anti-GFRAL antibodies identified in Example 6 were assayed for their binding affinity to human GFRAL. Binding affinity measurements were made in Biacore based assays. For example, equilibrium dissociation constant (KD) measurements were carried out with purified antibodies to evaluate their binding to human GFRAL. Using methods described in Example II, anti-mouse Fc antibody (Sigma-Aldrich, St. Louis, Mo.) was immobilized on all four flow cells of a CM5 chip using amine coupling reagents (GE Healthcare LifeSciences, Piscataway, N.J.). Purified humanized anti-GFRAL antibodies were captured (˜100 RUs) on flow cells 2, 3 and 4 using flow cell 1 as a reference. This was followed by injection of human GFRAL in PBS-P buffer) at a flow rate of 70 μL/min and the binding kinetics were evaluated at 25° C.

[2] = biological target: T3, human GFRAL expressed on cells (human, UniProt Q6UXV0 20-394); assay: cell-based or functional assay
T3 sequence: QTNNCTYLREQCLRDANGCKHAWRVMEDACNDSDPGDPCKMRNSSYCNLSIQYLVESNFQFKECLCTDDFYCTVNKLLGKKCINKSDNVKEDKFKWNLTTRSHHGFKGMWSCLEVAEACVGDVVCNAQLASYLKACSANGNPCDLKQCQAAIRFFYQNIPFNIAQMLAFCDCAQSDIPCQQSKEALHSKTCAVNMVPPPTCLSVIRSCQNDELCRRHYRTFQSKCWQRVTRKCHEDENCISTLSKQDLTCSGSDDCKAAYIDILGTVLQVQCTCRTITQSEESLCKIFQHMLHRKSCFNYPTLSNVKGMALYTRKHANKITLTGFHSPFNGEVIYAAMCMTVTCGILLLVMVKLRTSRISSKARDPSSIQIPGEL

[3] = biological target: T3, human GFRAL expressed on cells; assay: cell-based or functional assay; remark: listed apart in the source
[4] = biological target: T3, human GFRAL expressed on cells; assay: cell-based or functional assay; remark: listed apart in the source
[5] = biological target: T3, human GFRAL expressed on cells; assay: cell-based or functional assay; remark: listed apart in the source
[6] = biological target: T4, mouse GFRAL expressed on cells (mouse, UniProt Q6SJE0 20-393); assay: cell-based or functional assay
T4 sequence: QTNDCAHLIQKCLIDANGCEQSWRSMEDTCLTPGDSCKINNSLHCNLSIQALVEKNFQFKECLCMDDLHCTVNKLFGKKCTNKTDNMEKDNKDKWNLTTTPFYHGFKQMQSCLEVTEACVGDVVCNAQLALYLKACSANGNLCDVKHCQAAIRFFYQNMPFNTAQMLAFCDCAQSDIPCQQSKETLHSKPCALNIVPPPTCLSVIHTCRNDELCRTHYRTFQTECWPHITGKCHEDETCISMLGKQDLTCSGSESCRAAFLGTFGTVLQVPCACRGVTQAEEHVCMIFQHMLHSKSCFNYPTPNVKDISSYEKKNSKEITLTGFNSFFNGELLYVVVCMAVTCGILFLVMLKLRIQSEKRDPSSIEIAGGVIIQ

[7] = biological target: T2, human GFRAL (analyte in Biacore assays); assay: Biacore SPR, antibody captured, GFRAL injected
[8] = biological target: T5, mouse GFRAL (analyte in Biacore assays) (mouse, UniProt Q6SJE0 20-349, limits assumed); assay: Biacore SPR, antibody captured, GFRAL injected
T5 construct: injected in solution over captured antibody
T5 sequence: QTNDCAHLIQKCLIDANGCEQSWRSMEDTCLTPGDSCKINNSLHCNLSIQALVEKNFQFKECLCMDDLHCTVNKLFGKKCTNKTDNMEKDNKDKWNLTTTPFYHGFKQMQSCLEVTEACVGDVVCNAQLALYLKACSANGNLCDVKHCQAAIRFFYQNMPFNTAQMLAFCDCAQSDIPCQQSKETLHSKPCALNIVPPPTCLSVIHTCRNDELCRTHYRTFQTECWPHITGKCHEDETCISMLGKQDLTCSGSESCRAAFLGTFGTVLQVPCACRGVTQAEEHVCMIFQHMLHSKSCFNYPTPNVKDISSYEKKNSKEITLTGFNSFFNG

[9] = biological target: T3, human GFRAL expressed on cells; assay: cell-based or functional assay; remark: listed apart in the source

binding result (GFRα1): no binding
Kd [1]: < 0.01 nM
IC50, ELK1-luciferase reporter (hGFRAL/hRET) [2]: 6.95 nM
IC50, ERK phosphorylation in U2OS hGFRAL/hRET cells [3]: 3.3 nM
B1: humanized anti-GFRAL antibody HC-344e/LC-344h (antibody, IgG1, V domains shown)
VH: QVQLVQSGAEVKKPGSSVKVSCKASGYTFTDYGVIWVRQAPGQGLEWMGWINTYTGEPTYADDLKGRVTFTADESTSTAYMELSSLRSEDTAVYYCARRYGPEDIDYWGQGTTVTVSS
VL: DVVLTQSPLSLPVTLGQPASISCRASESVDNYGISFMSWFQQRPGQSPRLLIYAASHQGSGVPDRFSGSGSGTDFTLKISRVEAEDVGVYFCLQSKEVPWTFGGGTKVEIK
notes: humanized 3P10; also called h3P10

Kd [1]: < 0.01 nM
IC50, ELK1-luciferase reporter (hGFRAL/hRET) [2]: 4.63 nM
IC50, ERK phosphorylation in U2OS hGFRAL/hRET cells [3]: 5.02 nM
B2: humanized anti-GFRAL antibody HC-344a/LC-344h (antibody, IgG1, V domains shown)
VH: B1 VH with F70I
VL: B1 VL
notes: humanized 3P10

Kd [1]: 0.012 nM
IC50, ELK1-luciferase reporter (hGFRAL/hRET) [2]: 7.26 nM
IC50, ERK phosphorylation in U2OS hGFRAL/hRET cells [3]: 5.13 nM
B3: humanized anti-GFRAL antibody HC-344a/LC-344c (antibody, IgG1, V domains shown)
VH: B1 VH with F70I
VL: B1 VL with V2I
notes: humanized 3P10

Kd [1]: < 0.01 nM
IC50, ELK1-luciferase reporter (hGFRAL/hRET) [2]: 29.4 nM
IC50, ERK phosphorylation in U2OS hGFRAL/hRET cells [3]: 15.1 nM
B4: humanized anti-GFRAL antibody HC-344h/LC-344c (antibody, V domains shown)
VH: B1 VH with V2I, E46K
VL: B1 VL with V2I
notes: humanized 3P10

Kd [1]: < 0.01 nM
IC50, ELK1-luciferase reporter (hGFRAL/hRET) [2]: 5.7 nM
IC50, ERK phosphorylation in U2OS hGFRAL/hRET cells [3]: 2.18 nM
B5: humanized anti-GFRAL antibody HC-344h/LC-344h (antibody, IgG1, V domains shown)
VH: B1 VH with V2I, E46K
VL: B1 VL
notes: humanized 3P10

Kd [1]: < 0.01 nM
IC50, ELK1-luciferase reporter (hGFRAL/hRET) [2]: 4.02 nM
IC50, ERK phosphorylation in U2OS hGFRAL/hRET cells [4]: 0.08 nM
IC50, ERK phosphorylation in U2OS hGFRAL/hRET cells [3]: 5.46 nM
IC50, ELK1-luciferase reporter (hGFRAL/hRET) [5]: 4.09 nM
IC50, ELK1-luciferase reporter (mGFRAL/mRET) [6]: 1.03 nM
Kd [7]: < 0.1 nM
koff [7]: ~1e-05 s⁻¹
Kd [8]: < 0.1 nM
koff [8]: ~1e-05 s⁻¹
B6: antibody designated 3P10 (antibody, V domains shown)
VH: QIQLVQSGPELKKPGETVKISCKASGYTFTDYGVIWVKQAPGKALKWMGWINTYTGEPTYADDLKGRFAFSLETSASSASLQINNLKNEDTATYFCARRYGPEDIDYWGQGTTLTVSS
VL: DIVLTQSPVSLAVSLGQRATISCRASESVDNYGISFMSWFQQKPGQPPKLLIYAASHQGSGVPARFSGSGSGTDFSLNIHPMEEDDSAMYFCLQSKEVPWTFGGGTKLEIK
notes: mouse hybridoma monoclonal; also called 3P10 Hybridoma; m3P10

IC50, ELK1-luciferase reporter (hGFRAL/hRET) [9]: 5.4 nM
Kd [1]: 0.038 nM
IC50, ERK phosphorylation in U2OS hGFRAL/hRET cells [4]: 0.06 nM
IC50, ELK1-luciferase reporter (hGFRAL/hRET) [5]: 0.834 nM
IC50, ELK1-luciferase reporter (mGFRAL/mRET) [6]: 6.28 nM
Kd [7]: < 0.1 nM
koff [7]: ~1e-05 s⁻¹
Kd [8]: 2.2 nM
koff [8]: 0.0009 s⁻¹
B7: antibody designated 5F12 (antibody, V domains shown)
VH: QVQLKQSGTELVRPGASVKLSCKASGYTFTDYYINWVKQRPGQGLEWIARIYPGNGNTYHNEKFKGKATLTAEKSSSTAYMQLSSLTSEDSAVYFCAREGLYYDYDRYFDYWGQGTALTVSS
VL: NIVLTQSPASLAVSLGQRATISCRASESVDTYGNSFMHWYQQKPGQPPKLLIYLASNLESGVPARFSGSGSRTDFTLTIDPVEADDAATYYCHQNNEDPPAFGGGTKLEIK
notes: mouse hybridoma monoclonal; also called 5F12 Hybridoma
